Experimental data taken from PMC10989685, “Structural and functional characterization of the IgSF21-neurexin2α complex and its related signaling pathways in the regulation of inhibitory synapse organization” (Frontiers in Molecular Neuroscience, 2024).

Target: T1, Recombinant human Fc-tagged NRXN2α (human Nrxn2α-Fc, R&D Systems #6636-NX) (human, UniProt Q9P2S2 29-1636)
T1 construct: Neurexin2α (Nrxn2α), human, ectodomain; The catalogue number is printed for the pull-down only; Limits and splice variant are in the supplier's data sheet; also called soluble Nrxn2α ectodomain; soluble Nrxn2α; source: bought: R&D Systems (#6636-NX), highly purified
Assay: SPR; Biacore T200; IgSF21-His amine-coupled to a CM5 chip (500 RU); NRXN2α-Fc as analyte, 0 to 200 nM; PBS pH 7.4, 0.025% Tween-20, 25°C, 20 μl/min; one-site Langmuir (1:1) model, kinetic analysis
Conditions: both partners purified

T1 sequence (Q9P2S2 29-1636): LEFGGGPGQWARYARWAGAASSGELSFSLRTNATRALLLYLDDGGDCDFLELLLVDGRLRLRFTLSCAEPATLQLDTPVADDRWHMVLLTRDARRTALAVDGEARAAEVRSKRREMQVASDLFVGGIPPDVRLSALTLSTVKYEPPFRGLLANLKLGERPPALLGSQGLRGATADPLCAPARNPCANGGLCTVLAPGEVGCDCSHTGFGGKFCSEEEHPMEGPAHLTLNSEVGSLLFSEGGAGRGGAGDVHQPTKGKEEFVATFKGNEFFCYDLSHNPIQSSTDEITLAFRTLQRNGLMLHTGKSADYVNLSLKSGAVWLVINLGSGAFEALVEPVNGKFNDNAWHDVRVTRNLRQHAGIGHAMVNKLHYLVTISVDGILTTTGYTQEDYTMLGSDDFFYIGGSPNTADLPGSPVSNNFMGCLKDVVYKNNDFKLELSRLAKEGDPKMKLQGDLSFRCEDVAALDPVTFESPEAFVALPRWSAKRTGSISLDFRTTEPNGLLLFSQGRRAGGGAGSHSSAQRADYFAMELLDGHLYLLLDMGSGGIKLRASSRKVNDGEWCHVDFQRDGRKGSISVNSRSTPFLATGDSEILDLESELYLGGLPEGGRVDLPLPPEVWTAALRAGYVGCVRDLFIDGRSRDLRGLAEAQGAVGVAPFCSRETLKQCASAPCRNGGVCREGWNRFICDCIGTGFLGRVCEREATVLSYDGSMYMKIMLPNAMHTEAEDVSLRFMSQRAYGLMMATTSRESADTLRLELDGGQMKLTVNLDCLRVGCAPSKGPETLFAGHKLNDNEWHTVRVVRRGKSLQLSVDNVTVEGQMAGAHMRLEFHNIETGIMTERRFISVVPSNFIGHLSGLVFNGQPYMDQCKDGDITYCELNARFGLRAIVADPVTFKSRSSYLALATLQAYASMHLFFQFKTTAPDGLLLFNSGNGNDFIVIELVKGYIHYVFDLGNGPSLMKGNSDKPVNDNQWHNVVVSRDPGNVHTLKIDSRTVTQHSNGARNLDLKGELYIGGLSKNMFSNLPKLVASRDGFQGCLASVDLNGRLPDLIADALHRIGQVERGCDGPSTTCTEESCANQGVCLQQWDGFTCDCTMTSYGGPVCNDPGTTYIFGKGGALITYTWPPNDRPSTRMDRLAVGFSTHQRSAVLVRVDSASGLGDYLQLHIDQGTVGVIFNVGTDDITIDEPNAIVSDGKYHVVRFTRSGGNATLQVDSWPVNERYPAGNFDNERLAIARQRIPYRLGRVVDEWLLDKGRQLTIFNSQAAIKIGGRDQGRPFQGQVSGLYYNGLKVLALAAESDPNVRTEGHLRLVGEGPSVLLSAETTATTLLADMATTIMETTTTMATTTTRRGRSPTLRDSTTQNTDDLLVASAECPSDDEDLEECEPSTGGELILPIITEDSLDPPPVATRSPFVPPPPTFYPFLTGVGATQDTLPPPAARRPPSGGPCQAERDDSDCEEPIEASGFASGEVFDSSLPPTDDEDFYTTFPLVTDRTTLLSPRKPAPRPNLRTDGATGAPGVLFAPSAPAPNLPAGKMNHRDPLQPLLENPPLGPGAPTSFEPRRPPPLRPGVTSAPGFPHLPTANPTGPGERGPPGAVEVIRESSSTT

B1: Recombinant human His-tagged IgSF21 protein (R&D Systems #10330-S2) (natural protein, UniProt Q96ID5 25-444, looked up)
chain: YLTVNIEPLPPVVAGDAVTLKCNFKTDGRMREIVWYRVTDGGTIKQKIFTFDAMFSTNYSHMENYRKREDLVYQSTVRLPEVRISDNGPYECHVGIYDRATREKVVLASGNIFLNVMAPPTSIEVVAADTPAPFSRYQAQNFTLVCIVSGGKPAPMVYFKRDGEPIDAVPLSEPPAASSGPLQDSRPFRSLLHRDLDDTKMQKSLSLLDAENRGGRPYTERPSRGLTPDPNILLQPTTENIPETVVSREFPRWVHSAEPTYFLRHSRTPSSDGTVEVRALLTWTLNPQIDNEALFSCEVKHPALSMPMQAEVTLVAPKGPKIVMTPSRARVGDTVRILVHGFQNEVFPEPMFTWTRVGSRLLDGSAEFDGKELVLERVPAELNGSMYRCTAQNPLGSTDTHTRLIVFENPNIPRGTEDSN
notes: Immunoglobulin superfamily member 21 (IgSF21), human, soluble recombinant protein; Soluble bought protein, probably the ectodomain without the GPI-anchor signal; also called IgSF21-His; human IgSF21-His; source: bought: R&D Systems (#10330-S2), purified
Kd: 5.67 nM
